Experiment [1] addresses CdiI^NC101-His6 immunity protein, crystallography construct (E. coli NC101). In words: crystal structure.
For experiment [2] the target is unchanged. The experiment in a line: crystal structure. The source holds these as a separate data set.

Read-outs that look alike come from different tables or passages of the source.

As for “CdiI^NC101-His6 immunity protein, crystallography construct (natural protein)”, the stoichiometry N in experiment [1] and in experiment [2] was 2 in each case.

These data come from publication PMC5737660.
